Reference: publication PMC9160799, “PET Imaging of Acidic Tumor Environment With ^89Zr-labeled pHLIP Probes” (Frontiers in Oncology, 2022)
“Also recorded” adds a separate entry of the source. Like-named read-outs stand apart in the source and are kept apart here. Square brackets hold non-standard residues; d marks the D form. Peptide text beside a SMILES is read from it. * marks the point of attachment. X1 = CC(=O)N(O)CCCCCNC(=O)CCC(=O)N(O)CCCCCNC(=O)CCC(=O)N(O)CCCCCNC(=O)CCC(=O)N(O)CCCCCNC(=S)Nc1ccc(NC(=S)*)cc1

What was measured:
[1] = tested on: kidney uptake of [89Zr]Zr-DFOsqa-Lys-Var3; experiment: Kidney-blocking study (PET imaging); assay type: in vivo, healthy female SCID mice; details: drug IV 30 min before 7.4 MBq [89Zr]Zr-DFOsqa-Lys-Var3 (1.2 nmol); two doses per drug, n=2 each; PET 24 h p.i. vs control mice
Protocol: (§1) The imaging and biodistribution studies were performed with male (RM-1 model) and female (4T1 model) athymic nude mice and the kidney-blocking experiments were performed with female SCID mice received from Charles River Laboratories (Stone Ridge, NY). After arrival, the mice were kept in the MSK vivarium for one week before any experimental handling was performed. The animals were allowed free access to water and food, and all animal care and experimental procedures were approved by the Institutional Animal Care and Use Committee (IACUC). For the subcutaneous allografts, a 1-to-1 ratio of Corning Matrigel Matrix and the cell solution was prepared and stored on ice for the injections. Each mouse received a subcutaneous injection of 100 µL (50 µL cell solution, viability > 90%, + 50 µL Matrigel) into the flank on the level of the right shoulder. The injections were performed under anesthesia (2% isoflurane, Baxter Healthcare, Deerfield, IL, USA). Palpable tumors of similar size (100–300 mm^3) developed 5–8 days after grafting.
PET images were obtained at the respective timepoints with the mice under anesthesia (2% isoflurane) on a microPET Focus 120 (Concorde Microsystems) or an Inveon PET-CT (Siemens) rodent scanner. All images were analyzed using the Medical Imaging Data Examiner Amide (version 0.9.0) or the Inveon reconstruction software suite. The counting rates in the reconstructed images were converted to percent of injected dose per weight (%ID/g) by applying a system-specific calibration factor. At the final timepoint, the remaining mice were euthanized (by CO2 asphyxiation, followed by cervical dislocation) and their tumors were resected for histological analysis.
Additional experiments were performed to investigate the influence of various kidney-uptake blockers and diuretics. Healthy female SCID mice received a “blocking agent” 30 minutes prior to the injection of [^89Zr]Zr-DFOsqa-Lys-Var3 (7.4 MBq/200 µCi, 1.2 nmol). […] The experimental set-up can be found in Table S6 .
Table S6. Summary of the kidney-blocking study. Healthy female SCID mice (2 mice per experiment/ dosage + 2 control mice without treatment, total of 22 mice) received a blocking agent intravenously 30 minutes prior to the injection of 7.4 MBq/200 µCi [89Zr]Zr-DFOsqa-Lys-Var3 (1.2 nmol pHLIP).
The drug dose was calculated as weight of drug (mg) per weight of mouse (kg). A potential kidney […]
calibrated images to the control mice (24 hours post injection). No drug led to a significant reduction […]
drug (IV 30 min before dose [mg/kg] effect on kidney mechanism of action [89Zr]Zr-pHLIP) (n=2) uptake […]
and water from the body; acts as a diuretic […]
organic anion transporter; blocks the uptake of organic anions […]
tubule via inhibition of the Na/Cl symporter; acts as a diuretic […]
increased – serum levels decreased

[2] = Post-mortem biodistribution, RM-1 tumor model; assay type: in vivo, male athymic nude mice; details: male, athymic nude, mouse, iv, 1.2 nmol, total radioactivity; for tissue uptake at 48 h: RM-1, male athymic nude mice, 48 h p.i., i.v. 1.2 nmol, 7.4 MBq, gamma counting, mean ± S.D., n=4
Protocol: The media were provided by the MSK Media Preparation Core. […] Another aliquot was diluted with the medium so that 50 µL contained 1×10^6 cells.
as §1, with “USA).” for “USA). Palpable tumors of similar size (100–300 mm^3) developed 5–8 days after grafting.”
The mice were intravenously injected (tail vein) with the radiolabeled pHLIP conjugates (1.2 nmol, 7.4 MBq/200 µCi, 100 µL, in sterile filtered PBS). The activity of the syringe prior to injection and after injection was used to determine the percent of injectate administered.
For the biodistribution studies the tumor-bearing mice were randomized before the injections. Only mice with suitable tumors (150–300 mm^3) were utilized. An exception was made for the 120-hour timepoint, for which only mice with smaller tumors (150 mm^3) were selected. The mice were grouped in cohorts of four. At the respective timepoint, the mice were euthanized (by CO2 asphyxiation, followed by cervical dislocation) and their blood was collected by cardiac puncture as a terminal procedure, followed by quick removal of the tumors. After this, the other organs/samples were collected. […] The exact activities of all samples of one mouse were determined by an Capintec® CRC-55tR dose calibrator. These decay-corrected measurements were used to determine a calibration factor and calibrate all counts to the corresponding activities. Activity concentrations were calculated as percentage injected dose per tissue weight (%ID/g wet tissue). All data was processed and visualized using Origin 8.5.

With `NS(=O)(=O)c1cc(C2(O)NC(=O)c3ccccc32)ccc1Cl` (stereo not shown) [chlorthalidone] the “effect on kidney uptake” value [1] was “not significant; also recorded: none of these drugs led to a significant reduction of kidney uptake”.
Work on `CC[C@@H](C)[C@@H](NC(=O)[C@H]1CCCN1C(=O)[C@@H](CC(N)=O)NC(=O)[C@@H](CCC(N)=O)NC(=O)[C@@H](CCC(=O)O)NC(=O)[C@@H](CCCCNC(=S)Nc1ccc(NC(=S)NCCCCCN(O)C(=O)CCC(=O)NCCCCCN(O)C(=O)CCC(=O)NCCCCCN(O)C(C)=O)cc1)NC(=O)[C@@H](C)NC(C)=O)C(=O)N[C@H](Cc1ccc(O)cc1)C(=O)N[C@H](Cc1c[nH]c2ccccc12)C(=O)N[C@H](C)C(=O)N[C@H](CCCNC(=N)N)C(=O)N[C@H](Cc1ccc(O)cc1)C(=O)N[C@H](C)C(=O)N[C@H](CC(=O)O)C(=O)N[C@H](Cc1c[nH]c2ccccc12)C(=O)N[C@H](CC(C)C)C(=O)N[C@H](Cc1ccccc1)C(=O)N[C@@H](C(=O)N[C@@H](C(=O)N1CCC[C@@H]1C(=O)N[C@H](CC(C)C)C(=O)N[C@H](CC(C)C)C(=O)N[C@H](CC(C)C)C(=O)N[C@H](CC(C)C)C(=O)N[C@H](CC(=O)O)C(=O)N[C@H](CC(C)C)C(=O)N[C@H](C)C(=O)N[C@H](CC(C)C)C(=O)N[C@H](CC(C)C)C(=O)N[C@@H](C(=O)N[C@H](CC(=O)O)C(=O)N[C@H](C)C(=O)N[C@H](CC(=O)O)C(=O)N[C@H](CCC(=O)O)C(=O)NCC(=O)N[C@@H](C(=O)NCC(=O)O)[C@H](C)O)C(C)C)[C@H](C)O)[C@H](C)O` (89Zr complex, metal not drawn) [DFO-Lys-WT] yielded a tissue uptake at 48 h ([2]; blood, read-out: Blood uptake) of 0.1 ± 0.03 %ID/g and a tissue uptake at 48 h ([2]; tibia, read-out: Tibia uptake) of 2.3 ± 0.5 %ID/g.
`CC(=O)N[C@H](C)C(=O)N[C@H](CCCCNC(=S)Nc1ccc(NC(=S)NCCCCCN(O)C(=O)CCC(=O)NCCCCCN(O)C(=O)CCC(=O)NCCCCCN(O)C(=O)CCC(=O)NCCCCCN(O)C(C)=O)cc1)C(=O)N[C@H](CC(=O)O)C(=O)N[C@H](CC(=O)O)C(=O)N[C@H](CCC(N)=O)C(=O)N[C@H](CC(N)=O)C(=O)N1CCC[C@@H]1C(=O)N[C@H](Cc1c[nH]c2ccccc12)C(=O)N[C@H](CCCNC(=N)N)C(=O)N[C@H](C)C(=O)N[C@H](Cc1ccc(O)cc1)C(=O)N[C@H](CC(C)C)C(=O)N[C@H](CC(=O)O)C(=O)N[C@H](CC(C)C)C(=O)N[C@H](CC(C)C)C(=O)N[C@H](Cc1ccccc1)C(=O)N1CCC[C@@H]1C(=O)N[C@@H](C(=O)N[C@H](CC(=O)O)C(=O)N[C@@H](C(=O)N[C@H](CC(C)C)C(=O)N[C@H](CC(C)C)C(=O)N[C@H](CC(C)C)C(=O)N[C@H](CC(=O)O)C(=O)N[C@H](CC(C)C)C(=O)N[C@H](CC(C)C)C(=O)N[C@H](Cc1c[nH]c2ccccc12)C(=O)N[C@H](C)C(=O)O)[C@H](C)O)[C@H](C)O` [DFO*-Lys-Var3] (Ac-[dA][dK](X1)[dD][dD][dQ][dN][dP][dW][dR][dA][dY][dL][dD][dL][dL][dF][dP][dT][dD][dT][dL][dL][dL][dD][dL][dL][dW][dA]-OH; C-terminus assumed) showed a tissue uptake at 48 h ([2]; in vivo, read-out: Tibia uptake) of 1.1 ± 0.5 %ID/g.
In the case of `N=C(N)NC(=O)c1nc(Cl)c(N)nc1N` [amiloride], the “effect on kidney uptake” value [1] is reported as “not significant; also recorded: none of these drugs led to a significant reduction of kidney uptake”.
For `CN(C)c1nc(N)c(C(=O)NC(=N)N)nc1Cl` [5-(N,N-dimethyl)amiloride], the “effect on kidney uptake” value [1] was “not significant; also recorded: none of these drugs led to a significant reduction of kidney uptake”.
Work on `CC[C@@H](C)[C@@H](NC(=O)[C@H]1CCCN1C(=O)[C@@H](CC(N)=O)NC(=O)[C@@H](CCC(N)=O)NC(=O)[C@@H](CCC(=O)O)NC(=O)[C@@H](CCCCNC(=S)Nc1ccc(NC(=S)NCCCCCN(O)C(=O)CCC(=O)NCCCCCN(O)C(=O)CCC(=O)NCCCCCN(O)C(C)=O)cc1)NC(=O)[C@@H](C)NC(C)=O)C(=O)N[C@H](Cc1ccc(O)cc1)C(=O)N[C@H](Cc1c[nH]c2ccccc12)C(=O)N[C@H](C)C(=O)N[C@H](CCCNC(=N)N)C(=O)N[C@H](Cc1ccc(O)cc1)C(=O)N[C@H](C)C(=O)N[C@H](CC(=O)O)C(=O)N[C@H](Cc1c[nH]c2ccccc12)C(=O)N[C@H](CC(C)C)C(=O)N[C@H](Cc1ccccc1)C(=O)N[C@@H](C(=O)N[C@@H](C(=O)N1CCC[C@@H]1C(=O)N[C@H](CC(C)C)C(=O)N[C@H](CC(C)C)C(=O)N[C@H](CC(C)C)C(=O)N[C@H](CC(C)C)C(=O)N[C@H](CC(=O)O)C(=O)N[C@H](CC(C)C)C(=O)N[C@H](C)C(=O)N[C@H](CC(C)C)C(=O)N[C@H](CC(C)C)C(=O)N[C@@H](C(=O)N[C@H](CC(=O)O)C(=O)N[C@H](C)C(=O)N[C@H](CC(=O)O)C(=O)N[C@H](CCC(=O)O)C(=O)NCC(=O)N[C@@H](C(=O)NCC(=O)O)[C@H](C)O)C(C)C)[C@H](C)O)[C@H](C)O` [DFO-Lys-WT] yielded a tissue uptake at 48 h ([2]; in vivo, read-out: Brain uptake) of 0.03 ± 0.03 %ID/g, a tissue uptake at 48 h ([2]; in vivo, read-out: Kidneys uptake) of 14.2 ± 1.2 %ID/g and a tissue uptake at 48 h ([2]; in vivo, read-out: Liver uptake) of 14.8 ± 4.7 %ID/g. For the same molecule, the tissue uptake at 48 h ([2]; in vivo, read-out: Lungs uptake) was 11.5 ± 0.4 %ID/g, the tissue uptake at 48 h ([2]; in vivo, read-out: Muscle uptake) was 0.3 ± 0.08 %ID/g and the tissue uptake at 48 h ([2]; in vivo, read-out: Pancreas uptake) was 0.9 ± 0.4 %ID/g. For the same molecule, the tissue uptake at 48 h ([2]; in vivo, read-out: Skin uptake) was 1.5 ± 0.2 %ID/g, the tissue uptake at 48 h ([2]; in vivo, read-out: Spleen uptake) was 25.8 ± 5.5 %ID/g and the tissue uptake at 48 h ([2]; in vivo, read-out: Tumor uptake) was 1.6 ± 0.1 %ID/g. The tissue to tissue ratio at 48 h ([2]; tumor / muscle, RM-1 model, 48-hour timepoint, read-out: tumor-to-muscle uptake-ratio) was 5.5 ± 1.5.
